Results from paper PMC7386476.

How the values were obtained:
[1] = molecular target: nsp12 (RNA-dependent RNA polymerase);nsp7;nsp8;nsp13 helicase (SARS-CoV-2;SARS-CoV-2;SARS-CoV-2;SARS-Co …, UniProt P0DTD1;P0DTD1;P0DTD1;P0DTD1 4393-5324;3860-3942;3943-4140;5325-5925, |||); assay: EMSA
[2] = molecular target: nsp12 (RNA-dependent RNA polymerase);nsp7;nsp8 (SARS-CoV-2;SARS-CoV-2;SARS-CoV-2, UniProt P0DTD1;P0DTD1;P0DTD1 4393-5324;3860-3942;3943-4140, ||); assay: EMSA

B1: RNA scaffold (template-product, cryo-EM primer and template, Figure 1A) (dsRNA)
RNA 1: CUAUCCCCAUGUGAUUUUAAUAGCUUCUUAGGAGAAUGACGUAGCAUGCUACGCG
RNA 2: CGCGUAGCAUGCUACGUCAUUCUCCUAAGAAGCUA
binding result [1]: binds | binding result [2]: binds
